Laboratory results as given in article PMC9949482 (2021).

B1: RXRα LBD (protein)
chain: NEDMPVERILEAELAVEPKTETYVEANMGLNPSSPNDPVTNICQAADKQLFTLVEWAKRIPHFSELPLDDQVILLRAGWNELLIASFSHRSIAVKDGILLATGLHVHRNSAHSAGVGAIFDRVLTELVSKMRDMQMDKTELGCLRAIVLFNPDSKGLSNPAEVEALREKVYASLEAYCKHKYPEQPGRFAKLLLRLPALRSIGLKCLEHLFFFKLIGDTPIDTFLMEMLEAP
modifications: UAB111
B2: RXRα LBD (protein)
chain: B1 chain
modifications: UAB110
B3: RXRα LBD (protein)
chain: B1 chain
modifications: UAB30

Legend:
GRIP-1 [1] = molecular target: T1, GRIP-1 (Homo sapiens, UniProt Q15596); experiment: thermal shift
GRIP-1 [2] = molecular target: T1, GRIP-1; experiment: thermal shift, van't Hoff to 25 °C

T1 sequence (Q15596 2-1464): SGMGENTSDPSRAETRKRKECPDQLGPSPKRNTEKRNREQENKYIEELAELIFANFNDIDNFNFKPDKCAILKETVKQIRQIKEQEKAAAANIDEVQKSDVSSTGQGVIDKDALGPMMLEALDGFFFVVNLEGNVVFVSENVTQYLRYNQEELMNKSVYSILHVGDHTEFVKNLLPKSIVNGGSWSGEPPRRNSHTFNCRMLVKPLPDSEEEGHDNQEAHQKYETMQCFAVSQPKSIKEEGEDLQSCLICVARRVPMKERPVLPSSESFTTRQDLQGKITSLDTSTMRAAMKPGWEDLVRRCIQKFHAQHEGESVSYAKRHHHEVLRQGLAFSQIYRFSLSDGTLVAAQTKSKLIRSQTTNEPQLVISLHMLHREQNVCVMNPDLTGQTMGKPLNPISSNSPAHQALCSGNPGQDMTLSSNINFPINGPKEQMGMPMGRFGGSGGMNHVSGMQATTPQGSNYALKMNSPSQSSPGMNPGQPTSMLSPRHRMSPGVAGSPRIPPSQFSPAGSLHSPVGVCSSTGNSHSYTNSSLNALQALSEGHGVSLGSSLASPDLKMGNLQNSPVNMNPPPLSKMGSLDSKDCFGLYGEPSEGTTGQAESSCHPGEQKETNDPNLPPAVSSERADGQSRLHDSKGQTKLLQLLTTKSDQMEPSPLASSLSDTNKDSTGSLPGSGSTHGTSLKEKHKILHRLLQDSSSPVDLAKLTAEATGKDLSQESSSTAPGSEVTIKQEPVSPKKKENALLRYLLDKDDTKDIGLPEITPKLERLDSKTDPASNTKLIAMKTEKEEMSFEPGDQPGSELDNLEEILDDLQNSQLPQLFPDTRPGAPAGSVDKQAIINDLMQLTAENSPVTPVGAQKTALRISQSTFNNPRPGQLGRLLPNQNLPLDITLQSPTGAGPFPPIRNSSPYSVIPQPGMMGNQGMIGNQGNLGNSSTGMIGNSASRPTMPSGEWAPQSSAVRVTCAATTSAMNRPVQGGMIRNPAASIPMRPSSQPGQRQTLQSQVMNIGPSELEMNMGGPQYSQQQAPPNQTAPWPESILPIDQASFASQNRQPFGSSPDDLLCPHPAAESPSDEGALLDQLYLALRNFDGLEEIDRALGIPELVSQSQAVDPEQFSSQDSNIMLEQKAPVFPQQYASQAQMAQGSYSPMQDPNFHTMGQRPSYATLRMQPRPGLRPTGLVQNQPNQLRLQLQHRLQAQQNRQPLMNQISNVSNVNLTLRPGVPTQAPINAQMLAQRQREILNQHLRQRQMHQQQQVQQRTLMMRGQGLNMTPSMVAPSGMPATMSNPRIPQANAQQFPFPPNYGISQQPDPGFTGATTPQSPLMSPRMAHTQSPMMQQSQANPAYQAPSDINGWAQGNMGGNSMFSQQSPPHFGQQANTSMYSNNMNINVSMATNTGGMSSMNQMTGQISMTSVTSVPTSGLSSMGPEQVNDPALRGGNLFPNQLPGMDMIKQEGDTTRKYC

Binder | Kd (GRIP-1 [1]) | Kd (GRIP-1 [2])
B1 | 24 µM | 1.8 µM
B2 | 26 µM | 1.5 µM
B3 | 22 µM | 0.74 µM
